± gives the uncertainty stated by the source.
assay: abundance fitness (aPCA) (normalised: wild type 0, dead -1); higher = more abundant; growth selection in yeast, the domain comes from the species named; conditions: Homo sapiens

Substance | abundance fitness
DnaJ homolog subfamily B member 1 G14F, P25685 | -0.446 ± 0.2
DnaJ homolog subfamily B member 1 G14H, P25685 | -0.133 ± 0.24
DnaJ homolog subfamily B member 1 G14I, P25685 | -0.235 ± 0.12
DnaJ homolog subfamily B member 1 G14K, P25685 | -0.13 ± 0.093
DnaJ homolog subfamily B member 1 G14L, P25685 | -0.266 ± 0.074
DnaJ homolog subfamily B member 1 G14M, P25685 | -0.385 ± 0.096
DnaJ homolog subfamily B member 1 G14N, P25685 | -0.232 ± 0.15
DnaJ homolog subfamily B member 1 G14P, P25685 | -0.347 ± 0.12
DnaJ homolog subfamily B member 1 G14Q, P25685 | -0.251 ± 0.091
DnaJ homolog subfamily B member 1 G14R, P25685 | -0.274 ± 0.056
DnaJ homolog subfamily B member 1 G14S, P25685 | -0.126 ± 0.042
DnaJ homolog subfamily B member 1 G14T, P25685 | -0.072 ± 0.092
DnaJ homolog subfamily B member 1 G14V, P25685 | -0.241 ± 0.11
DnaJ homolog subfamily B member 1 G14Y, P25685 | -0.378 ± 0.32
DnaJ homolog subfamily B member 1 G40A, P25685 | -0.128 ± 0.1
DnaJ homolog subfamily B member 1 G40C, P25685 | -0.113 ± 0.16
DnaJ homolog subfamily B member 1 G40D, P25685 | -0.301 ± 0.078
DnaJ homolog subfamily B member 1 G40E, P25685 | -0.194 ± 0.1
DnaJ homolog subfamily B member 1 G40F, P25685 | -0.049 ± 0.13
DnaJ homolog subfamily B member 1 G40H, P25685 | -0.131 ± 0.15
DnaJ homolog subfamily B member 1 G40I, P25685 | -0.026 ± 0.13
DnaJ homolog subfamily B member 1 G40K, P25685 | 0.005 ± 0.15
DnaJ homolog subfamily B member 1 G40L, P25685 | -0.188 ± 0.1
DnaJ homolog subfamily B member 1 G40M, P25685 | -0.14 ± 0.1
DnaJ homolog subfamily B member 1 G40N, P25685 | -0.173 ± 0.18

Substance | abundance fitness
DnaJ homolog subfamily B member 1 G40P, P25685 | -0.248 ± 0.12
DnaJ homolog subfamily B member 1 G40Q, P25685 | -0.103 ± 0.14
DnaJ homolog subfamily B member 1 G40R, P25685 | -0.041 ± 0.088
DnaJ homolog subfamily B member 1 G40S, P25685 | -0.195 ± 0.086
DnaJ homolog subfamily B member 1 G40V, P25685 | -0.133 ± 0.079
DnaJ homolog subfamily B member 1 G40Y, P25685 | -0.182 ± 0.15
DnaJ homolog subfamily B member 1 H32A, P25685 | -0.154 ± 0.16
DnaJ homolog subfamily B member 1 H32C, P25685 | -0.106 ± 0.14
DnaJ homolog subfamily B member 1 H32D, P25685 | -0.241 ± 0.23
DnaJ homolog subfamily B member 1 H32E, P25685 | 0.035 ± 0.091
DnaJ homolog subfamily B member 1 H32F, P25685 | -0.139 ± 0.16
DnaJ homolog subfamily B member 1 H32G, P25685 | -0.007 ± 0.072
DnaJ homolog subfamily B member 1 H32I, P25685 | -0.246 ± 0.12
DnaJ homolog subfamily B member 1 H32K, P25685 | -0.777 ± 0.16
DnaJ homolog subfamily B member 1 H32L, P25685 | -0.025 ± 0.082
DnaJ homolog subfamily B member 1 H32M, P25685 | 0.014 ± 0.089
DnaJ homolog subfamily B member 1 H32N, P25685 | 0.017 ± 0.15
DnaJ homolog subfamily B member 1 H32P, P25685 | -0.199 ± 0.14
DnaJ homolog subfamily B member 1 H32R, P25685 | -0.057 ± 0.061
DnaJ homolog subfamily B member 1 H32S, P25685 | 0.05 ± 0.073
DnaJ homolog subfamily B member 1 H32T, P25685 | -0.048 ± 0.072
DnaJ homolog subfamily B member 1 H32W, P25685 | -0.155 ± 0.075
DnaJ homolog subfamily B member 1 H32Y, P25685 | -0.192 ± 0.21
DnaJ homolog subfamily B member 1 I20A, P25685 | -0.63 ± 0.092
DnaJ homolog subfamily B member 1 I20C, P25685 | -0.431 ± 0.079

Substance | abundance fitness
DnaJ homolog subfamily B member 1 I20D, P25685 | -0.766 ± 0.17
DnaJ homolog subfamily B member 1 I20E, P25685 | -0.956 ± 0.15
DnaJ homolog subfamily B member 1 I20F, P25685 | -0.708 ± 0.1
DnaJ homolog subfamily B member 1 I20G, P25685 | -0.9 ± 0.071
DnaJ homolog subfamily B member 1 I20H, P25685 | -0.948 ± 0.13
DnaJ homolog subfamily B member 1 I20K, P25685 | -0.86 ± 0.087
DnaJ homolog subfamily B member 1 I20L, P25685 | -0.143 ± 0.076
DnaJ homolog subfamily B member 1 I20M, P25685 | -0.575 ± 0.12
DnaJ homolog subfamily B member 1 I20N, P25685 | -1.02 ± 0.11
DnaJ homolog subfamily B member 1 I20P, P25685 | -1.26 ± 0.17
DnaJ homolog subfamily B member 1 I20Q, P25685 | -0.759 ± 0.13
DnaJ homolog subfamily B member 1 I20R, P25685 | -0.832 ± 0.06
DnaJ homolog subfamily B member 1 I20S, P25685 | -0.782 ± 0.061
DnaJ homolog subfamily B member 1 I20W, P25685 | -1.42 ± 0.12
DnaJ homolog subfamily B member 1 I48A, P25685 | -0.108 ± 0.079
DnaJ homolog subfamily B member 1 I48C, P25685 | -0.073 ± 0.11
DnaJ homolog subfamily B member 1 I48D, P25685 | -0.667 ± 0.12
DnaJ homolog subfamily B member 1 I48E, P25685 | -0.697 ± 0.095
DnaJ homolog subfamily B member 1 I48F, P25685 | -0.41 ± 0.13
DnaJ homolog subfamily B member 1 I48G, P25685 | -0.615 ± 0.065
DnaJ homolog subfamily B member 1 I48H, P25685 | -0.561 ± 0.12
DnaJ homolog subfamily B member 1 I48K, P25685 | -0.329 ± 0.2
DnaJ homolog subfamily B member 1 I48L, P25685 | -0.089 ± 0.072
DnaJ homolog subfamily B member 1 I48M, P25685 | -0.111 ± 0.099

Source: the Human Domainome abundance scans (Beltran et al. 2025)
